Results published in publication PMC11811199 (EMBO Reports, 2024).

Target: T1, DYRK4-His (UniProt Q9NR20 1-520)
T1 construct: also called recombinant DYRK4; pET30a-DYRK4-his; not shown: His, C-terminal, kept
T1 sequence (looked up): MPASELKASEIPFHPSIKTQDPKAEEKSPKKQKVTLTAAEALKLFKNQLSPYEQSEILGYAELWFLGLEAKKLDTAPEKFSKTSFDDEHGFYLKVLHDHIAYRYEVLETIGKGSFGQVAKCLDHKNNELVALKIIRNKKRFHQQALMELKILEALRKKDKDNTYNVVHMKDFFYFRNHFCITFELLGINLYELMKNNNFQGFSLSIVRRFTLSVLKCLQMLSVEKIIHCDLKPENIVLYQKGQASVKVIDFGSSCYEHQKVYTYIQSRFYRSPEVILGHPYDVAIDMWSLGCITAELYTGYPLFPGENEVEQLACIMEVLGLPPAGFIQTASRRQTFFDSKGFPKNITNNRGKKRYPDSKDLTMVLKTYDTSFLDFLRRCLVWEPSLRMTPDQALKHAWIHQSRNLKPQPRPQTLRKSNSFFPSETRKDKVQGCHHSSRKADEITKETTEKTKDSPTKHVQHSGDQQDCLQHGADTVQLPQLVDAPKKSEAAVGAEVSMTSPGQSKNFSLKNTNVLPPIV
Assay: pull-down
Conditions: both partners purified

- binding result: binds
B1: GST-IRF3 (natural protein, UniProt Q14653 1-427, looked up)
chain: MGTPKPRILPWLVSQLDLGQLEGVAWVNKSRTRFRIPWKHGLRQDAQQEDFGIFQAWAEATGAYVPGRDKPDLPTWKRNFRSALNRKEGLRLAEDRSKDPHDPHKIYEFVNSGVGDFSQPDTSPDTNGGGSTSDTQEDILDELLGNMVLAPLPDPGPPSLAVAPEPCPQPLRSPSLDNPTPFPNLGPSENPLKRLLVPGEEWEFEVTAFYRGRQVFQQTISCPEGLRLVGSEVGDRTLPGWPVTLPDPGMSLTDRGVMSYVRHVLSCLGGGLALWRAGQWLWAQRLGHCHTYWAVSEELLPNSGHGPDGEVPKDKEGGVFDLGPFIVDLITFTEGSGRSPRYALWFCVGESWPQDQPWTKRLVMVKVVPTCLRALVEMARVGGASSLENTVDLHISNSHPLSLTSDQYKAYLQDLVEGMDFQGPGES
notes: also called pGEX6P-1-GST-IRF3; not shown: GST, N-terminal, kept
